From paper PMC12342889, “Deciphering the RNA recognition by Musashi-1 to design protein and RNA variants for in vitro and in vivo applications”

What was measured:
MSI-1 RRM2 = MSI-1 RRM2 (Homo sapiens, UniProt O43347 104-200); assay: SPR; 1:1 model; NMR: 50 mM Tris-HCl, 140 mM NaCl, 1 mM EDTA, 1 mM protease inhibitors, pH 7.2 (RRM1: pH 7.5), 298 K; fluorescence quenching: 50 mM Tris pH 7.2, 140 mM NaCl, 1 mM EDTA; SPR: biotinylated RNA immobilised, buffer not in the material; conditions: protein: recombinant, label: biotin for SPR
Sequence of MSI-1 RRM2 (O43347 104-200): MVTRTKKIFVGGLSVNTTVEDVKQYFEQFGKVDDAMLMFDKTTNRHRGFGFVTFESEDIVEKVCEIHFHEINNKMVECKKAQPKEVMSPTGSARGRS

MSI-1 RRM1 = MSI-1 RRM1 (Homo sapiens, UniProt O43347 1-103); assay: as above; conditions: protein: recombinant, label: biotin for SPR
Sequence of MSI-1 RRM1 (O43347 1-103): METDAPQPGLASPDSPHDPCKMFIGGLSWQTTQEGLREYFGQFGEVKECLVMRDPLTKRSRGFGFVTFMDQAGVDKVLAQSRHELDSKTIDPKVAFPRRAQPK

MSI-1 RRM2-M1 = MSI-1 RRM2-M1 (Homo sapiens, UniProt O43347 104-200, E180N); assay: SPR; NMR: 50 mM Tris-HCl, 140 mM NaCl, 1 mM EDTA, 1 mM protease inhibitors, pH 7.2 (RRM1: pH 7.5), 298 K; fluorescence quenching: 50 mM Tris pH 7.2, 140 mM NaCl, 1 mM EDTA; SPR: biotinylated RNA immobilised, buffer not in the material; conditions: protein: recombinant, label: biotin for SPR
Sequence of MSI-1 RRM2-M1 (O43347 104-200 E180N): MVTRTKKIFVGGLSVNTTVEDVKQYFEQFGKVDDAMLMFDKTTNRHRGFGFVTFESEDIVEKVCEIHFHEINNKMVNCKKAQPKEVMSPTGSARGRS

MSI-1 RRM2-M2 = MSI-1 RRM2-M2 (Homo sapiens, UniProt O43347 104-200, K182M); assay: as above; conditions: protein: recombinant, label: biotin for SPR
Sequence of MSI-1 RRM2-M2 (O43347 104-200 K182M): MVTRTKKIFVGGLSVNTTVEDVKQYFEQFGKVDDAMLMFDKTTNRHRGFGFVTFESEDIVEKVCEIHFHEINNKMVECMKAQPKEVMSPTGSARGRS

MSI-1 RRM1-2 DM [1] = target: T1, MSI-1 RRM1-2 DM (Homo sapiens, UniProt O43347 1-200, E180N;K182M); assay: SPR; KD1 monovalent, 1:2 model; NMR: 50 mM Tris-HCl, 140 mM NaCl, 1 mM EDTA, 1 mM protease inhibitors, pH 7.2 (RRM1: pH 7.5), 298 K; fluorescence quenching: 50 mM Tris pH 7.2, 140 mM NaCl, 1 mM EDTA; SPR: biotinylated RNA immobilised, buffer not in the material; conditions: protein: recombinant; label: biotin for SPR; unlabelled for NMR; single strand
T1 sequence (O43347 1-200 E180N/K182M): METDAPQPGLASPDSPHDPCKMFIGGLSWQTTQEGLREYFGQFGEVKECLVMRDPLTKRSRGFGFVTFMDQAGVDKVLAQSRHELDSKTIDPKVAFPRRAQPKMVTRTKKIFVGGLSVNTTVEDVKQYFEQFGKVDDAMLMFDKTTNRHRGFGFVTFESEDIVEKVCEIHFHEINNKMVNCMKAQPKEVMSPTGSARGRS

MSI-1 RRM1-2 [2] = target: T2, MSI-1 RRM1-2 (Homo sapiens, UniProt O43347 1-200); assay: as above; conditions: protein: recombinant, label: biotin for SPR, unlabelled for NMR
T2 sequence (O43347 1-200): as the sequence (O43347 1-200 E180N/K182M) above, with N180E, M182K counted along it

MSI-1 RRM1-2 DM [3] = target: T1, MSI-1 RRM1-2 DM; assay: SPR; KD1 monovalent; 1:1 model at low RNA density; NMR: 50 mM Tris-HCl, 140 mM NaCl, 1 mM EDTA, 1 mM protease inhibitors, pH 7.2 (RRM1: pH 7.5), 298 K; fluorescence quenching: 50 mM Tris pH 7.2, 140 mM NaCl, 1 mM EDTA; SPR: biotinylated RNA immobilised, buffer not in the material; conditions: protein: recombinant; label: biotin for SPR; single strand
MSI-1 RRM1-2 [4] = target: T2, MSI-1 RRM1-2; assay: SPR; KD1 monovalent; bivalent part negligible; NMR: 50 mM Tris-HCl, 140 mM NaCl, 1 mM EDTA, 1 mM protease inhibitors, pH 7.2 (RRM1: pH 7.5), 298 K; fluorescence quenching: 50 mM Tris pH 7.2, 140 mM NaCl, 1 mM EDTA; SPR: biotinylated RNA immobilised, buffer not in the material; conditions: protein: recombinant; label: biotin for SPR; single strand
MSI-1 RRM1-2 DM [5] = target: T1, MSI-1 RRM1-2 DM; assay: NMR; more than one species; NMR: 50 mM Tris-HCl, 140 mM NaCl, 1 mM EDTA, 1 mM protease inhibitors, pH 7.2 (RRM1: pH 7.5), 298 K; fluorescence quenching: 50 mM Tris pH 7.2, 140 mM NaCl, 1 mM EDTA; SPR: biotinylated RNA immobilised, buffer not in the material; conditions: protein: recombinant; label: biotin for SPR; unlabelled for NMR; hairpin
MSI-1 RRM1-2 DM [6] = target: T1, MSI-1 RRM1-2 DM; assay: SPR; KD1 monovalent; NMR: 50 mM Tris-HCl, 140 mM NaCl, 1 mM EDTA, 1 mM protease inhibitors, pH 7.2 (RRM1: pH 7.5), 298 K; fluorescence quenching: 50 mM Tris pH 7.2, 140 mM NaCl, 1 mM EDTA; SPR: biotinylated RNA immobilised, buffer not in the material; conditions: protein: recombinant; label: biotin for SPR; unlabelled for NMR; single strand
[7] = unlabelled for NMR, single strand

B1: oligo-L2 (ssRNA)
RNA: UUGUUAGUUACCCCUU
B1 was tested, and the Kd (MSI-1 RRM2; [7]) was 25 ± 3.6 nM, the Kd (MSI-1 RRM1; [7]) was 47.1 ± 0.7 nM and the Kd (MSI-1 RRM2-M1; [7]) was 35.5 ± 3.6 nM. The Kd (MSI-1 RRM2-M2; [7]) was 108 ± 10.2 nM, the Kd (MSI-1 RRM1-2 DM [1]) was 104 ± 9.5 nM and the Kd (MSI-1 RRM1-2 [2]; single strand) was 57.6 ± 12.9 nM.

B2: oligo-L2.1 (ssRNA)
RNA: UUGUCAGUUACCCCUU
B2 showed a Kd (MSI-1 RRM2; single strand) of 123 ± 7.8 nM, a Kd (MSI-1 RRM1; single strand) of 151 ± 16.9 nM and a Kd (MSI-1 RRM2-M1; single strand) of 58.6 ± 3.6 nM. The Kd (MSI-1 RRM2-M2; single strand) was 62.9 ± 11 nM, the Kd (MSI-1 RRM1-2 DM [3]) was 67 ± 20.4 nM and the Kd (MSI-1 RRM1-2 [4]) was 218 ± 27.5 nM.

B3: oligo-HP4 (structured_RNA)
RNA: AAGCGUUAGUUAUUUAGUCGCUU
B3 gave a Kd (MSI-1 RRM2; unlabelled for NMR, hairpin) of 37.2 ± 2.4 nM, a Kd (MSI-1 RRM1; unlabelled for NMR, hairpin) of 21.9 ± 2.7 nM and a Kd (MSI-1 RRM2-M1; unlabelled for NMR, hairpin) of 14.1 ± 2.5 nM. The Kd (MSI-1 RRM2-M2; unlabelled for NMR, hairpin) was 39.1 ± 15 nM, the Kd (MSI-1 RRM1-2 [2]; hairpin) was 76.8 ± 5.9 nM and the binding result (MSI-1 RRM1-2 DM [5]) was “binds”.

B4: oligo-HP5 (structured_RNA)
RNA: CACUCUGUAGUAUGUAGGGUUUAUUU
Work on B4 yielded a Kd (MSI-1 RRM2; unlabelled for NMR, hairpin) of 26.4 ± 1.6 nM, a Kd (MSI-1 RRM1; unlabelled for NMR, hairpin) of 32.8 ± 5.2 nM and a Kd (MSI-1 RRM2-M1; unlabelled for NMR, hairpin) of 14.5 ± 0.8 nM. The Kd (MSI-1 RRM2-M2; unlabelled for NMR, hairpin) was 14.5 ± 3 nM and the Kd (MSI-1 RRM1-2 [2]; hairpin) was 48.6 ± 5.6 nM.

B5: oligo-L3 (ssRNA)
RNA: UUGUUAGUUAUUAGUU
For B5, the Kd (MSI-1 RRM2; [7]) was 81.6 ± 2 nM, the Kd (MSI-1 RRM1; [7]) was 153 ± 8.6 nM and the Kd (MSI-1 RRM2-M1; [7]) was 74.8 ± 9.3 nM. For the same binder, the Kd (MSI-1 RRM2-M2; [7]) was 64.5 ± 4.1 nM, the Kd (MSI-1 RRM1-2 [2]; single strand) was 248 ± 8.5 nM and the Kd (MSI-1 RRM1-2 DM [6]) was 98.5 ± 4.8 nM.

B6: oligo-L3.2 (ssRNA)
RNA: UUGAUAGUUAGCAGGU
B6 showed a Kd (MSI-1 RRM2; [7]) of 44.5 ± 4.5 nM, a Kd (MSI-1 RRM1; [7]) of 85.6 ± 7.4 nM and a Kd (MSI-1 RRM2-M1; [7]) of 49.8 ± 11.4 nM. The Kd (MSI-1 RRM2-M2; [7]) was 88.5 ± 1.25 nM, the Kd (MSI-1 RRM1-2 [2]; single strand) was 144 ± 15 nM and the Kd (MSI-1 RRM1-2 DM [6]) was 98.5 ± 6.9 nM.
